Results as given in patent US20260265403A1 (TJ BIOPHARMA SHANGHAI, published 2026).

T1: human CD24 on cells (human, UniProt P25063 27-59)
T1 chain (looked up): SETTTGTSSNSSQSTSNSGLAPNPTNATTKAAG


Molecular target: T1, human CD24 on cells
Assay: cell-based or functional assay

Row | Binder | EC50 of Phagocytosis assay, IgG1, Kappa; HEK293-CD24 | EC50 of Phagocytosis assay, IgG1, Kappa; MCF-7 | EC50 of Phagocytosis assay, IgG1, Kappa; NALM6 | EC50 of Phagocytosis assay, IgG1, Kappa; OVCAR3 | EC50 of Phagocytosis assay, IgG4, Kappa; HEK293-CD24 | EC50 of Phagocytosis assay, IgG4, Kappa; MCF-7 | EC50 of Phagocytosis assay, IgG4, Kappa; NALM6 | EC50 of Phagocytosis assay, IgG4, Kappa; OVCAR3
1 | 67-H2E7, IgG1, Kappa (antibody, V domains shown) VH: EVQLQQSGPELVKPGASVKISCKASGYEFTGYHMNWVKQSPEKSLEWIGEINPITSDKTFNQKFKAKATLTVDRSSTTAYMHLKSLTSEDSAVYYCARRDYDTSLDYWGQGTTLTVSS VL: DVQITQSPSYLAASPGETITIYCRASKSISKYLAWYQEKPEKTNRLLIYAGSTLQSGIPSRFRGSGSGKDFTLTVSGLEPEDFAMYYCQQHNEYPLTFGAGTKLDLK | 0.42 µg/mL | 0.45 µg/mL | 0.22 µg/mL | 8.46 µg/mL |  |  |  | 
2 | 79-E3H3, IgG4, Kappa (antibody, V domains shown) VH: EVQLQQSGPELVKPGASVKISCKASGYEFTGYHMNWVKQSPEKSLEWIGEINPITSDKTFNQKFKAKATLTVDRSSSTAYMHLKSLTSEDSAVYYCARRDYDTSLDYWGQGTTLTVSS VL: DVQITQSPSYLAASPGETITIYCRASKSISKYLAWYQEKPEKTNRLLIYAGSTLQSGIPSRFRGSGSGKDFTLTVSGLEPEDFAMYYCQQHNEYPLTFGAGTKLELK |  |  |  |  | 0.58 µg/mL | 1.42 µg/mL | 0.72 µg/mL | 0.42 µg/mL
3 | 67-H2E7, IgG4, Kappa (antibody, V domains shown) VH: EVQLQQSGPELVKPGASVKISCKASGYEFTGYHMNWVKQSPEKSLEWIGEINPITSDKTFNQKFKAKATLTVDRSSTTAYMHLKSLTSEDSAVYYCARRDYDTSLDYWGQGTTLTVSS VL: DVQITQSPSYLAASPGETITIYCRASKSISKYLAWYQEKPEKTNRLLIYAGSTLQSGIPSRFRGSGSGKDFTLTVSGLEPEDFAMYYCQQHNEYPLTFGAGTKLDLK |  |  |  |  | 0.51 µg/mL | 1.28 µg/mL | 0.68 µg/mL | 0.71 µg/mL
4 | 79-E3H3, IgG1, Kappa (antibody, V domains shown) VH: EVQLQQSGPELVKPGASVKISCKASGYEFTGYHMNWVKQSPEKSLEWIGEINPITSDKTFNQKFKAKATLTVDRSSSTAYMHLKSLTSEDSAVYYCARRDYDTSLDYWGQGTTLTVSS VL: DVQITQSPSYLAASPGETITIYCRASKSISKYLAWYQEKPEKTNRLLIYAGSTLQSGIPSRFRGSGSGKDFTLTVSGLEPEDFAMYYCQQHNEYPLTFGAGTKLELK | 0.19 µg/mL | 0.52 µg/mL | 0.49 µg/mL | 0.44 µg/mL |  |  |  | 
5 | 59-G9D7, IgG4, Kappa (antibody, V domains shown) VH: QVQLQQPGADLVKPGASVKLSCKASGYTVTTYWMHWVRQRPGRGLEWIGRIDPNSGETKYSEKFKNKATLTVDRPSSTAYMQLSSLTFEDSAVYFCAIYYYLNNFLFDYWGQGTTLTVSS VL: ENVLTQSPAIMSASPGEKVTMTCRASSSVSSSYLHWYQKKSGASPKLWIYSTSNLASGVPARFSGSGSGTSYSLTISSVEAEDAATYYCQQYSGYPLTFGAGTKLELK |  |  |  |  | 2.08 µg/mL | 0.19 µg/mL | 6.57 µg/mL | 1.26 µg/mL
6 | 62-F7E9, IgG4, Kappa (antibody, V domains shown) VH: QVQLQQPGAELVKPGASVKLSCKASGYTSTSYWLHWVKQRPGRGLEWIGRIDPNSGETKFNEKFKSQATLTVDKPSSTAYMQLNSLTSEDSAVYYCALYYYGSILFDYWGQGTTLTVSS VL: ENVLTQSPAIMSASPGEKVTMTCRTSSIISSGFLHWYQQKSGASPKLWIYSTSNLASGVPARFSGSGSGTSYSLTISSVEAEDAATYYCQQYSGHPLTFGAGTKLELK |  |  |  |  | 10.5 µg/mL | 0.21 µg/mL | 0.01 µg/mL | 1.41 µg/mL
7 | 75-H8B9, IgG4, Kappa (antibody, V domains shown) VH: EVNLEESGGGLVQPGGSRQLSCVASGLTFSKHWMNWVRQSPDKGLEWVAQIQLKSDNYAIRYVDSVKGRFTISRDDSENTVYLQMNNLRAEDTGIYYCTTGTDYWGQGTTLTVSS VL: not shown |  |  |  |  | 0.4 µg/mL | 0.76 µg/mL | 0.84 µg/mL | 0.24 µg/mL
8 | 76-F8C6, IgG4, Kappa (antibody, V domains shown) VH: EVKLEESGGGLVQPGGSMKLSCVASGFTFTNSWMNWVRQSPERGLDWVAQIQLKSDNYATRYVESVKGRFTISRDDSKNSVYLQMNNLRAEDTGIYYCTTGTDYWSQGTTLTVSS VL: not shown |  |  |  |  | 0.4 µg/mL | 2.44 µg/mL | 1.62 µg/mL | 0.27 µg/mL

Continued, values first:

Row | EC50 of Phagocytosis assay, IgG1, Kappa; HEK293-CD24 | EC50 of Phagocytosis assay, IgG1, Kappa; MCF-7 | EC50 of Phagocytosis assay, IgG1, Kappa; NALM6 | EC50 of Phagocytosis assay, IgG1, Kappa; OVCAR3 | EC50 of Phagocytosis assay, IgG4, Kappa; HEK293-CD24 | EC50 of Phagocytosis assay, IgG4, Kappa; MCF-7 | EC50 of Phagocytosis assay, IgG4, Kappa; NALM6 | EC50 of Phagocytosis assay, IgG4, Kappa; OVCAR3 | Binder
9 | 0.39 µg/mL | 0.57 µg/mL | 0.46 µg/mL | 2.23 µg/mL |  |  |  |  | 80-F10A6, IgG1, Kappa (antibody, V domains shown) VH: EVQLQQSGPVLVNPGASVKISCKASGYSFTGYYMNWVKQSPEKSLEWIGEVNPITGDTTYSQNFKAKTTLTVDRSSSTAYMQLKSLTSEDSAVYYCTRRDYGTSLDYWGQGTTLTVSS VL: DVQITQSPSYLAASPGETITIHCRASKSISRYLAWYQEKPGKINTLLIYAGSTLHLGIPSRFSGSGSGTDFTLTISSLELEDFAMYYCQQHNEYPITFGAGTKLELK
10 |  |  |  |  | 2.78 µg/mL | 1.94 µg/mL | 1.31 µg/mL | 0.86 µg/mL | 90-D11B6, IgG4, Kappa (antibody, V domains shown) VH: EVQLQQSGPELVKPGASVRISCKASGYSFTGYYMNWVKQSPEKNLEWIGEINPITGGSTYNQKFVAKATLTVDRSSSTAYMQLKSLTSEDSAVYYCTRRDYDTSLDYWGQGTTLTVSS VL: DVQITQSPSYLAASPGETITINCRASKSISKYLAWYQEKPGKTIKLLIYAGSTLQSGIPSRFSGSGYGTDFTLTISSLEPEDFAMYYCQQHNEYPLTFGAGTKLELK
11 | 6.76 µg/mL | 0.42 µg/mL | 0.32 µg/mL | 0.13 µg/mL |  |  |  |  | 85-D5A10 (4434), IgG1, Kappa (antibody, V domains shown) VH: EVQLQQSGPELVKPGASVKISCKASGYEFTGYHMNWVKQSPEKSLEWIGEINPITSDKTFNQKFKAKATLTVDRSSSTAYMHLKSLTSDDSAVYYCARRDYGTSLDYWGQGTTLTVSS VL: DVQITQSPSYLAASPGETITIYCRASKSISKYLAWYQEKPEKTIRLLIYAGSTLQSGIPSRFRGSGSGKDFTLTVSGLEPEDFAMYYCQQHNEYPITFGAGTKLELI
12 | 0.2 µg/mL | 0.33 µg/mL | 0.23 µg/mL | 0.15 µg/mL |  |  |  |  | 89-E8C12 (4428), IgG1, Kappa (antibody, V domains shown) VH: EVQLQQSGPELVKPGASVKISCKASGYDFTGYYMNWMKQSPEKSLEWIGEINPITSHNTFNQKFKAKATLTVDRSSSTAYMHLKSLTSEDSAVYYCARRDYGTSLDYWGQGTTLTVSS VL: DVQITQSPSYLAASPGETITIYCRASKSISKYLAWYQEKPEKTIRLLIYAGSTLQSGIPSRFRGSGSGTDFTLTVSGLEPEDFAMYYCQQHNEYPLTFGAGTKLELK
